Measured values published in a protein production outcome set (Wang et al. 2014).

Assay: label from the status in PepcDB records

Sequence: MRVLHETTQELANWQYYFAIAVFLITYAIIISEKINRAVIALLGAALMVIMGVVDLHNAFTKHIEWGTITLLIGMMILVNITSKSGVFQYVAIKAAKGAQGNPIKILISLSLLTALGSAFLDNVTTVLLVVPVTLSITRILQVNPVPYLLSEIIFSNIGGTATLIGDPPNIMIGSANKHLDFNAFLLNLAPIVIIIIAVTAAILYFMYRKQLIADPVQVKKLMSLDEKQYIKDPVLMKKSLTVLGLTIVGFMTHSIFHVDAAIIALTGATVLMLIGVKEHEIEEVFASVEWVTIFFFAGLFVLVGGLIDIGLIKMLAQKVIGITGGDISYASILILWVSGIASATIDNIPFVATMIPLINDMAVGLGLSPADAQIDVLWWALALGACLGGNGTLIGASANVIVAGIASREGHKFSYMDFLKVGFPIMIVSLIISHIYIYVRYLM
- protein production: failed

Sequence: MRVLKFGGSSLADADRFLRAADIIANNAQQEEVAVVLSAPGKTTNKLVAVIEGALRNGEAELQINELEESFKTLFADIQAVLPNLEGAAFDNQVKTSLSQLRQFVHGINLLGMCPNNVNAR
- protein production: failed

Sequence: MRVLVVGANGKVARYLLSELKNKGHEPVAMVRNEEQGPELRERGASDIVVANLEEDFSHAFASIDAVVFAAGSGPHTGADKTILIDLWGAIKTIQEAEKRGIKRFIMVSSVGTVDPDQGPMNMRHYLVAKRLADDELKRSSLDYTIVRPGPLSNEESTGKVTVSPHFSEITRSITRHDVAKVIAELVDQQHTIGKTFEVLNGDTPIAKVVEQL
- protein production: not failed

Sequence: MRVMRICLVGLGAVGQGFLRAVQMKGEYLRERYGLDIRFTGVADSSGALHDPDGLDIRGVLEHKKRAGLGSHPSGYEGMTGDELLDEAEYDCLVEATPTNIEDGEPGRSLVLKAMGDGKHVVTSNKGHLALFYSELMEAASEAGVEFMFEASVGGAMPIINLARETLASCTIESVIGILNGTTNFILSRMASEGSSYRQALIEAQELGIAETNPAQDVEGTDAACKAVIIANSILGRPCTLRDVRVEGITGITQGAIELAAQEGYLIKLIAEISGDRLEVGPRLVRMGSPYAVDGTLNMATLRTDLAGEVTAVGRGAGSLETASAMLTDTITIWRKSGGR
- protein production: failed

Sequence: MRVTYWRDESLQKNDRSHIKAYALMSGILAQLVGSILVGIFGGQWIDNKVGTFPLFLIIGLLLGLGTGVYAMIRLIRHYYSGEQ
- protein production: failed

Sequence: MRVVVMGCGRVGASVADGLSRIGHEVAIIDRDSAAFNRLSPQFAGERVLGQGFDRDVLLRAGIQGADAFAAVSSGDNSNIISARLARETFGVPRVVARIYDAKRAEVYERLGIPTIATVPWTTDRLLNALMQDTETAKWRDPTGTVAVAEVVLHEDWVGHRATDLEQATGARIAFLIRFGTGVLPEPKTVLQAGDKVYIAAISGRAAEAAAIAALPPSEDFESGARR
- protein production: failed

Sequence: MRWDVVAWAVLALLLIAAETLAPGAFLLWMGIAAAAVCVLVLAVPGTSVLLQIVAFVVLSFVAIQVYRTWFRGKGRQSDRPLLNRRAEQLIGRSVLLDQAIVDGRGRAKVDDAFWVVSGPDLPAGALVRIVAVDGMTLQVQPNT
- protein production: failed

Sequence: MRYEKMNQEILAAIGGEENIQSVVHCATRLRFVLKDESKADDKKAEAIDGILQVVKKGGQYQLVIGNNVEDVYDDLINMIHIETSDSNKPKKKQNLFDAIIGAITGSIAPAIPLLAGAGMGKVLLLILTICHVLSDKSQTYQLLNLIFDTGYYFMPAYVGFSAAKIFNTDRMLGAFIGLMTVHPSWVQIVTTNKPFHFLGLPVPLVQYSSTLITAILSVWIMSYIYKFVRKITPGMVKVFMEPMLTMLITGPLVFLIIGPISNWISEGIGFIAMWLFRNAGVIAIPILAALYPWLVSIGIHKALSPISIQLVATQGFDPIIRVVALCSNMSQAAASLAVGLKTKNKKLKSLALSSSVTAYLGGITEPALFGVNLRLKKPMYGAMIGGAIAGIVASFMKLKAFIYVTPAFLSLPMWISKTENFVVQAIIVIIVASVATFIATWIIGFDDPIDEDQVKNAKKEEKKNFDKDHKKHELHAPVKGQLEDISKVADPTFASGVMGKGIAIVPSEGKIFAPEDGVVTAIFDTHHAIGLHLSNDADVLIHVGIDTVEMKGKGFKQLVQKGDKVTAGQELLDFNIDEIKKNGYDPTVVMIVTNSKDFLEVLTVLKDKDATKEVTNQDNVIILA
- protein production: failed

Sequence: MRYLIGGIFLLISIWQFIVTGRTFSYLKKEGGKRTSPFILLGLWSSLVFAIISFAVAIASFFYVSF
- protein production: failed

Sequence: MRYLVWALRLLVFVAVLMFALKNTNPVAVTFYADYVVHDVPLIVVMLVVFVVGALFGLLLTVPAAMRRRREALRLRREVERLQAAASGTPPVVTPEAVAPMSPL
- protein production: failed

Sequence: MRYRRAARPVATVLIHAMQTYPLVFHASPDQTIAWRDGAPVAVRTFLAEVAQLAAALPAGAHVFNACTDRYRFTVGLCATLVAGKISLLPASQTPETVRRLAAFAPDVFCLHDAPDCAIALPRFRFPEPLPPAGADAPVDVPQIDASRVMAYIFTSGSTGTPVPHRKTWGALVEGVRASAARLGLLDAHACTLVGTVPPQHMYGFESTVLLALVGGLAFSNRLPFYPADIRAALEAVPQPRVLVTSPIHLRALLSSERALPPAALVLSATAALPEPLASEAEARLAAPLIEIYGSTETGQIATRRTAQGATWHLQPGIRLEARAGTPDEDGPVTWASGAHLDAPVPMGDTLELIDDTHFLLHGRKADLINVAGKRTSLAYLNHQLNAIPGVEDGVFFMPSAADNGSEPPARLAALVVAPELAAADLLHALRERIDPAFLPRPLLLVEALPRDATGKLPRDALAALIAQHGHRGARAGAPAPITFTIPADHPALPGHFPGHPIVPGVVLLDQAIRRIGAALNRPFDACRLSSAKFLSPAAPGVPLALAFEATASGAIRFTVSAGEREVASGVLAQQEAARP
- protein production: failed

Sequence: MRYSLFKNYLPKEEVPEIRKELIKLALPAMGENVLQMLFGMADTAFLGHYSWKAMSGVGLSNQVFWVVQVVLIAASMGATVTIANAIGAGNRKAVRSLAWNSVFLAIFTGVILTALTPLSDVLINIFPNLEGEIESSAKEYLKVILSGSMGFSIMAVFSAMLRGAGDTRTPMIVTGLTNFLNIFLDYAMIFGKFGFPEMGVRGAAVATILSRFVGAGILTYVIFKREEFQLRKGLVPPKWSSQKEILRVGFPTAIENFVFSTGVLMFANILLIAGAEAYAGHRIGINVESLSFMPAFGISVAITTLVGRYNGMGNKEHVLGVIRQGWILSLLFQVTVGIIIFLFPEPLIRIFTSDPQIIEISKLPVKIIGLFQFFLAIDSTMNGALRGTGNTLPPMIITFISIWTARLPVAFVMVKYFQLGLLGAWIGMIADIIFRSTLKLLFFLSGKWEKRAVLTRERVKELG
- protein production: failed

Sequence: MRYVVGHKNPDTDSIASAIVLAYFLDCYPARLGDINPETEFVLRKFGVMEPELIESAKGKEIILVDHSEKSQSFDDLEEGKLIAIIDHHKVGLTTTEPILYYAKPVGSTATVIAELYFKDAIDLIGGKKKELKPDLAGLLLSAIISDTVLFKSPTTTDLDKEMAKKLAEIAGISNIEEFGMEILKAKSVVGKLKPEEIINMDFKNFDFNGKKVGIGQVEVIDVSEVESKKEDIYKLLEEKLKNEGYDLIVFLITDIMKEGSEALVVGNKEMFEKAFNVKVEGNSVFLEGVMSRKKQVVPPLERAYNG
- protein production: not failed

Sequence: MSAAIAALAASYGSGSGSESDSDSEGSRCPLPAADSLMHLTKSPSAKPSLTVAVDSAPEVAVKEDLETGVHLDPAVKEVQYNPTYETMFAPELLPSHXSXPFEQWHHPRELPTGTRVPAPVTXALFPQERGSVICTCLLSGYALDPSLDNHQVSAKYIGSVEDAEKNQGLTVFETGQKKTEKRKKFKENDASNIDGFLGPWAKYVDEKDVAKPSEEEQKELDEITAKRQKKGKQEEEKPGEEKTILHVKEMYDYQGRSYLHIPQDVGVNLRSSVPPEKCYLPKKQIHVWSGHTKGVSAVRLFPLSGHLLLSCSMDCKIKLWEVYGDRRCLRTFIGHSKAVRDICFNTAGTQFLSAAYDRYLKLWDTETGQCISRFTNRKVPYCVKFNPDEDKQNLFVAGMSDKKIVQWDIRSGEIVQEYDRHLGAVNTIVFVDENRRFVSTSDDKSLRVWEWDIPVDFKYIAEPSMHSMPAVTLSPNGKWLACQSMDNQILIFGAQNRFRLNKKKIFKGHMVAGYACQVDFSPDMSYVISGDGNGKLNIWDWKTTKLYSRFKAHDKVCIGAVWHPHETSKVITCGWDGLIKLWD
- protein production: failed

Sequence: MSAEAADREAVSGSRPCTPPQTSWFEFLLNPSLLEQHLHSPHPDPSPVQLIFQFLEQASKPSVNEQNQVQPPVDNRRNRTLKLMALKVAAHLRWDLNMLEKGLTIPVLNMLLNELLCVSHVPPGVKHVDLDLSSLPPTTAMAVVFYNRWAIRTIVLSSFPEKQTKPGPHQLNMMNMLQQEKEHTENILSVLREQATDSIMVLEGALSIKKDFYIHL
- protein production: not failed

Sequence: MSAGEHAGGVFLGGIAIDEPTREAARAMVDRDREEFLPADPVAWVDDQLSELDDAFLRPAVNVRAVRLGPLRDVAAVCAAHDAILEVNAHCRQDELCDAGAGETLLRDTSRLCEQVRAASDEGAAVSVKVRAGVQGVHLPVLAQAIERAGAAAIHVDAMDSRRVVRDVADATALFVVANNGVRTRDDVFEYLSYGADAVSVGRPSRDPERVRAVYAAVKEWLL
- protein production: failed

Sequence: MSAHLLIILPLIIPFVAAVAALLFARWPTVQKGINIVSMGGILAASLGLLSRITEQGIQVTTIGDWPVPFGIVFVVDHLSVVMLIVSAIIGLAVAVYAVPDVDDARVRFGFYPFFNLLMIGINGAFLTGDLFNLYVWFEVMLISSFVLIVLGNTDEQLAGAVKYVVINLVSSLLFLSGVGLVYGMTGTLNMAELSLALSEVGQPGLVTVVAMLFLISFGIKAALFPLFFWLPASYHTPPASVSAFFAGLLTKVGVYALFRVFTLLFTQDVGYTHTLLLWGAGLTMVTGVLGAAVQNDFRRVLSFHIVSQIGYMIMGLALYTPLAILGGVFYIVHHIIVKANLFLVSGVAKRLRGSFSLKSLDGLYAYHPWLAALFIIPAFSLAGFPPLSGFWAKLILTIAGIETGAYWIVTVAVAVGLFTMFSMTKIWVKAFLPGGGGDLADAVSSMGLGTRVMYVPIAGLAALTIMISVFAGPVYDLAERSADELYNSSEYVEAVLNHEKSAADAGPRPGVDGRTGRVHAR
- protein production: failed

Sequence: MSAICQVTGRQPGYGKSVSHSHRRTSRRWNPNVQRRKFYLPSEGRTITLNVSTKGLKVIDRDGIESVVAKIRARGEKILEHHHHHH
- protein production: failed

Sequence: MSAITRYLAMLRLFGMLLCAAAIPSVATATVPVTVAVAASDVEEEAVEASAVGAEAEAARDAGYESAEVPALARRVTDLTATLDAAERARLEASLAALEARKGAQVAILMVPSTYPDSIEAYATRVFEAWKLGRKGIDDGVLVLVAKDDRRMRIEVGYGLEGTITDIDAGRIIREYMTPAFRQQDYAGGLEAAAQRLVRLIDGEALPPPPRDPLEPGAVRQTLAIAFLLGALGGVALLVRPRAWYWTLGAVVALAAALALGRHWPAGAMVALAEMVAVLGVGFGALLKYSRGARWFFAILVLYALGLFWAYRRYGLPVLHYGLAVPLSLGLSLLMLAGAWQGLRRGRRWAYLPGLLGLLLTLALECLLLLVDDPLNSIEALIILPAACLPLLIGCNFSAGGSGGGRRRGGDYASSSGSSSSSSSSSSSDSFSGGGGSSGGGGASGSWLEHHHHHH
- protein production: failed

Sequence: MSAKRVFEKFDKNKDGKLSLDEFREVALAFSPYFTQEDIVKFFEEIDVDGNGELNADEFTSCIEKML
- protein production: not failed
